The nature of the data set: protein stability index of a GFP-peptide fusion (GPS, HEK-293T) (PSI 1-6); higher = more stable. Particulars: c terminus: a fixed tail appended.

± gives the standard deviation.
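Further: 24-mer peptide tiles fused after GFP, lentivirally expressed, FACS-sorted into six equal bins by GFP/DsRed ratio, decoded by Illumina sequencing, PSI is the read-weighted mean bin number.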

Take IITIGYNVYHSYDLPWFRTLSWYF [CDS2]: the protein stability index worked out at 3.08 ± 0.23 (treatment: DMSO) and 3.2 ± 0.27 (treatment: MLN4924 1 uM, 8 h).
The matching figures for IITSRILVDQVTGVSRGVGFIRFD [ELAVL3]: 2.42 ± 0.53 and 2.53 ± 0.28.
The sequence IIVSIVHSVFEFLAFKNDIQFWNS [CLPTM1] registered a protein stability index (treatment: DMSO) of 3.5 ± 0.83 and a protein stability index (treatment: MLN4924 1 uM, 8 h) of 2.75 ± 0.65.
In the same order, the values of IKGKEGSALTEGAKEEGGEEVAKA [EPB41L3] are 5.81 ± 0.17 and 5.86 ± 0.12.
The matching figures for ILAFLVLEAVAGALVVALWGPLQD [TSPAN10]: 2.85 ± 0.24 and 3.03 ± 0.27.
In turn, ILDIHFLSQADFLVCTFSSQVCRV [FUT8] returned a protein stability index (treatment: DMSO) of 3.52 ± 0.23 and a protein stability index (treatment: MLN4924 1 uM, 8 h) of 3.09 ± 0.16.
In the case of ILHLICLLEKVPCTLEQDHFKKQT [FEM1C], the protein stability index reads like this: (treatment: DMSO) 2.82 ± 0.71; (treatment: MLN4924 1 uM, 8 h) 2.25 ± 0.45.
For ILISFTCRFLLNSRVTDAAFNFLL [TMEM120A], the protein stability index runs as follows: (treatment: DMSO) 2.9 ± 0.38; (treatment: MLN4924 1 uM, 8 h) 3.25 ± 0.23.
With ILKRTGQRYEHGRTLKSYLGLTNQ [ZNF649], the protein stability index is, setting by setting: (treatment: DMSO) 2.44 ± 0.24; (treatment: MLN4924 1 uM, 8 h) 2.63 ± 0.099.
The matching figures for ILTTSNITEKIDVAFVDRADIKQY [TRIP13]: 2.88 ± 0.2 and 3.02 ± 0.12.
With ILVLKTDSQDLVASFRVTTGTSNT [RBBP5], the protein stability index (treatment: DMSO) was 2.2 ± 0.41 and the protein stability index (treatment: MLN4924 1 uM, 8 h) was 2.36 ± 0.53.
Regarding IMLRSNESFTMDDMSWTCGNQDYK [VDR], the protein stability index (treatment: DMSO) was 2.86 ± 0.12 and the protein stability index (treatment: MLN4924 1 uM, 8 h) amounted to 2.61 ± 0.27.
In the same order, the values of INLATMNSCINPIALYFVSKKFKN [EDNRA] are 2.83 ± 1.4 and 2.01 ± 0.13.
As to IPAVLTVSMLGYPFILPDMVGGNA [MYORG], the protein stability index by setting is: (treatment: DMSO) 2.87 ± 0.51; (treatment: MLN4924 1 uM, 8 h) 2.63 ± 0.38.
On to IPISLETQAHIQECKHPSVFQHGD [MCOLN1], for which the protein stability index runs as follows: (treatment: DMSO) 4.26 ± 0.23; (treatment: MLN4924 1 uM, 8 h) 4.21 ± 0.14.
For IQAEERLDMEKRRCRQSLEDSESL [LRRC45], the protein stability index came out at 5.08 ± 0.27 (treatment: DMSO) and 5.16 ± 0.1 (treatment: MLN4924 1 uM, 8 h).
IQKRNQRQSGDRRQLPPPPTPANE [WAS]: the protein stability index runs as follows: (treatment: DMSO) 5.29 ± 0.23; (treatment: MLN4924 1 uM, 8 h) 5.16 ± 0.21.
The matching figures for IRQLATSGRFIVIIPRTVIDGLDL [SMG5]: 2.88 ± 0.61 and 2.68 ± 0.7.
In the same order, the values of IRSFGHFIARLQGSILQFNPEVGI [SMG5] are 2.45 ± 0.27 and 2.35 ± 0.25.
ISAVNYDFDEEYFSNTSELAKDFI [DAPK3]: the protein stability index worked out at 3.01 ± 0.21 (treatment: DMSO) and 3.28 ± 0.58 (treatment: MLN4924 1 uM, 8 h).
Regarding ISFHFEVTNHNIRLFEDVRSWMFR [TRIM43], the protein stability index is, setting by setting: (treatment: DMSO) 2.7 ± 0.96; (treatment: MLN4924 1 uM, 8 h) 3.24 ± 0.28.
On to ISQHGDPLLSNTFTETNNHWPQGP [EMID1], for which the protein stability index by setting is: (treatment: DMSO) 3.87 ± 0.29; (treatment: MLN4924 1 uM, 8 h) 4.08 ± 0.16.
ISSSSFGAEPSAPGGGGSPGACPA [RTN3] came in with a protein stability index (treatment: DMSO) of 4.72 ± 0.51 and a protein stability index (treatment: MLN4924 1 uM, 8 h) of 4.97 ± 0.089.
Consider ISSVLAGGSCRAPSTYGGGLSVSS [KRT16], for which the protein stability index worked out at 2.38 ± 0.33 (treatment: DMSO) and 2.27 ± 0.27 (treatment: MLN4924 1 uM, 8 h).
Consider ITAGAHRLWSHRSYKARLPLRLFL [SCD], for which the protein stability index reads like this: (treatment: DMSO) 2.6 ± 0.63; (treatment: MLN4924 1 uM, 8 h) 2.47 ± 0.64.
Take ITEEKVCMVCKKKIGNSAFARYPN [VPS39]: the protein stability index came to 2.73 ± 0.31 (treatment: DMSO) and 3.43 ± 0.53 (treatment: MLN4924 1 uM, 8 h).
As to ITESFTELARIVLLRHGMDRLWRP [RAB40B], the protein stability index by setting is: (treatment: DMSO) 2.84 ± 0.1; (treatment: MLN4924 1 uM, 8 h) 2.86 ± 0.25.
On to ITTRVNSEQEHFLIVPFGLLYSEV [ADD1], for which the protein stability index amounted to 2.74 ± 0.79 (treatment: DMSO) and 2.61 ± 0.81 (treatment: MLN4924 1 uM, 8 h).
In the case of ITYESSQVDPGTDLEPGVLMSAQT [EPB41L3], the protein stability index reads like this: (treatment: DMSO) 4.29 ± 0.33; (treatment: MLN4924 1 uM, 8 h) 4.7 ± 0.085.
For IVETLTVGCKGSKAGIEQEGYWLP [ZMYND11], the protein stability index reads like this: (treatment: DMSO) 2.21 ± 0.18; (treatment: MLN4924 1 uM, 8 h) 2.26 ± 0.14.
In the same order, the values of IVSLLLGTIHALIFAWNKWIDIKQ [STEAP1] are 2.06 ± 0.44 and 2.17 ± 0.29.
The matching figures for KADLEVSNRHGHTCLMISCYKGHK [FEM1C]: 3.03 ± 0.36 and 2.91 ± 0.33.
Take KAGSSEWLAVDGLVSPSNNSKEDA [ATF4]: the protein stability index amounted to 5.13 ± 0.19 (treatment: DMSO) and 5.14 ± 0.25 (treatment: MLN4924 1 uM, 8 h).
Regarding KAHSGRIPISLETQAHIQECKHPS [MCOLN1], the protein stability index was 4.5 ± 0.12 (treatment: DMSO) and 4.65 ± 0.14 (treatment: MLN4924 1 uM, 8 h).
Regarding KAMLQLHERGLKLHQTIYNQACKL [INTS4], the protein stability index reads like this: (treatment: DMSO) 2.23 ± 0.44; (treatment: MLN4924 1 uM, 8 h) 2.21 ± 0.26.
Take KAQIWDTAGQERYRAITSAYYRGA [RAB11A]: the protein stability index was 2.88 ± 0.16 (treatment: DMSO) and 2.98 ± 0.31 (treatment: MLN4924 1 uM, 8 h).

The values above are taken from the supplement of paper PMC10567573.
